Biological target: full-length t-SNARE heterodimer (syntaxin 1A and SNAP-25) (UniProt P32851 1-288; P60879 1-206)
Test: AFM single-molecule force spectroscopy

Chain of full-length t-SNARE heterodimer (syntaxin 1A and SNAP-25) (P32851 whole entry, chain 1 of 2): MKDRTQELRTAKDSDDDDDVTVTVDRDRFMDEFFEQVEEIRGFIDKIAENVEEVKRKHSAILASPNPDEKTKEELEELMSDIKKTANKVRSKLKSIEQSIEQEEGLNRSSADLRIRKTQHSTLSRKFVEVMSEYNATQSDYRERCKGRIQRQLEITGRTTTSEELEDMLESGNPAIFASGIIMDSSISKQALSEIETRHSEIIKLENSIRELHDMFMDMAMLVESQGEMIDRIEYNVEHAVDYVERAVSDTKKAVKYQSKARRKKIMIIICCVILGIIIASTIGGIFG
Chain of full-length t-SNARE heterodimer (syntaxin 1A and SNAP-25) (P60879 whole entry, chain 2 of 2): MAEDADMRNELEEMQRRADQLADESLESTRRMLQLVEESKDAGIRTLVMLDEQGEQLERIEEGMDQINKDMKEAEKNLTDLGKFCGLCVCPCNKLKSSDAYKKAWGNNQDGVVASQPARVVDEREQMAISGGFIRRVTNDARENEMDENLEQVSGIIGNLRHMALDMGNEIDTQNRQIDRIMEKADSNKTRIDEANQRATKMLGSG

Q: Which results are given for FETSAAKLKRKYWWKNLKMMIILGVICAIILIIIIVYFST (domain or fragment) [VAMP 2 in v-SNARE bilayers after cleavage by BoNT/B (remaining membrane-anchored portion)]?
A: dissociation rate of the inner barrier (kβ1^o): 20.1 s⁻¹; dissociation rate of the outer barrier (kβ2^o): 0.46 s⁻¹

Source: publication PMC2865556 (Integrative biology : quantitative biosciences from nano to …, 2009)
